The results in this text go back to US20250339569A1 (3B PHARMACEUTICALS, published 2025).

The target of assay [1] is T1, Fc-fusion protein of human carbonic anhydrase IX (human, UniProt Q16790 38-414). The assay can be described thus: SPR, captured hCAIX-Fc; t1/2 category A: >15.0 min. The protocol: (§1) Stock solutions of test compounds were prepared by dissolving each compound in DMSO. DMSO stock solution were diluted 1:1000 in Running Buffer without DMSO. […] SPR binding analyses were performed in Single Cycle Kinetic (SCK) mode at 25° C.
(§2) For each test compound, SPR raw data in the form of resonance units (RU) were plotted as sensorgrams using the Biacore™ T200 control software. The signal from the blank sensorgram was subtracted from that of the test compound sensorgram (blank corrected). The blank corrected sensorgram was corrected for baseline drift by subtracting the sensorgram of a SCK run without the test compound (running buffer only). […] Raw data and fit results were imported as text files in IDBS. The pKD value (negative decadic logarithm of dissociation constant) was calculated in the IDBS excel template.

Assay [2] concerns the target human carbonic anhydrase 9 (CAIX) (human, UniProt Q16790 38-459). The experiment in a line: FACS competition on HT-29 cells, competitor tracer 3BP-2776; category A = pIC50 >8.0. The protocol:
CAIX-expressing human HT-29 colorectal cancer cells (DSMZ, RRID: CVCL_0320) were cultured in McCoys's 5A modified medium (Biochrom, #F1015) including 10% fetal calf serum (FCS), 2 mM L-glutamine, 100 U/ml penicillin and 100 μg/mL streptomycin. Cells were detached with Accutase (Biolegend, #423201) and washed in FACS buffer (PBS including 1% FCS). Cells were diluted in FACS buffer to a final concentration of 500.000 cells per ml. 200 μL of the cell suspension were transferred to a u-shaped non-binding 96-well plate (Greiner) and cells were washed in ice-cold FACS buffer.
When biotinylated compounds were used an additional incubation step with 1 μg/mL APC-Streptavidin (Miltenyi; #130-106-791) in 50 μL FACS buffer for 30 minutes on ice was performed.
Cells were washed twice with ice-cold FACS buffer and analyzed in an Attune NxT flow cytometer (Thermo Fisher). Median fluorescence intensities (MFI) of the APC/Cy5-channel were calculated by Attune NxT software.

Assay [3] addresses T1, Fc-fusion protein of human carbonic …. The experiment in a line: SPR, captured hCAIX-Fc; pKD category A: >8.0. The protocol: as §1, §2

Starred links: 1 amine or outer side, 2 acyl side, 3 side chain; linkers in the order of their positions; H or OH if unused. Positions of bridges follow the written chain, without caps; N, C: chain ends. Non-standard residues stand in square brackets, D forms with d. Groups on a side chain read outwards from the residue. Primed or numbered codes have the meaning given here. *: point of attachment. Af3(4SaPy2Ac) = 3-amino-L-phenylalanine, ring amine acylated with (4-sulfamoylpyrazol-1-yl)acetic acid, NS(=O)(=O)c1cnn(CC(=O)Nc2cccc(C[C@H](N[*:1])C(=O)[*:2])c2)c1; Af3(Hsfu) = 3-amino-L-phenylalanine, ring amine acylated with 4-sulfamoylfuran-2-carboxylic acid, NS(=O)(=O)c1coc(C(=O)Nc2cccc(C[C@H](N[*:1])C(=O)[*:2])c2)c1; Aph(SaPr)″ = 4-amino-L-phenylalanine, ring amine acylated with 3-sulfamoylpropanoic acid, NS(=O)(=O)CCC(=O)Nc1ccc(C[C@H](N[*:1])C(=O)[*:2])cc1; Aph(SaPr) = 4-amino-L-phenylalanine, ring amine acylated by 3-sulfamoylpropanoic acid, NS(=O)(=O)CCC(=O)Nc1ccc(C[C@H](N[*:1])C(=O)[*:2])cc1; Af3(HO-Succinyl) = 3-aminophenylalanine with succinyl (free acid) on the ring amine, O=C(CCC(=O)[*:3])Nc1cccc(C[C@H](N[*:1])C(=O)[*:2])c1; Af3(MSAc) = 3-aminophenylalanine with 2-methanesulfonylacetyl on the ring amine, CS(=O)(=O)CC(=O)Nc1cccc(C[C@H](N[*:1])C(=O)[*:2])c1; Af3(Iva) = 3-aminophenylalanine with isovaleryl on the ring amine, CC(C)CC(=O)Nc1cccc(C[C@H](N[*:1])C(=O)[*:2])c1; Af3(Prp) = 3-aminophenylalanine with propionyl on the ring amine, CCC(=O)Nc1cccc(C[C@H](N[*:1])C(=O)[*:2])c1; Phe(3-NHCO(CH2)3SO2NH2) = N[C@@H](Cc1cccc(NC(=O)CCCS(N)(=O)=O)c1)C(=O)O; APAc″ = 2-(4-(amino)piperidin-1-yl)acetic acid, NC1CCN(CC(=O)*)CC1; DOTA = O=C(O)CN1CCN(CC(=O)O)CCN(CC(=O)*)CCN(CC(=O)O)CC1; PPAc = 4-carboxymethyl piperazine linker; mXylylene = c1cc(C[*:1])cc(C[*:2])c1; 3Amb = NCc1cccc(C(=O)O)c1; 4Amb = NCc1ccc(C(=O)O)cc1; AGLU′ = not defined here; 4Amc = not defined here; APAc = not defined here; Inp′ = not defined here; Apr = not defined here; Cmp = not defined here; Dap = NC[C@H](N)C(=O)O

For {DOTA-PPAc}-QCE[dP]D[Aph(SaPr)]LTWSC-NH2 (linker 2-11 via mXylylene) [3BP-4500], in assay [1], the “t1/2 (half-life of the complex, SPR)” value was greater than 15 min.

As for {DOTA-APAc″}-VYCE[dP]D[Af3(MSAc)]LTWSC-NH2 (linker 3-12 via mXylylene) [3BP-4242], the pIC50 in assay [2] is greater than 8 pic50.

For {GaDOTA-PPAc}-QCE[dP]D[Phe(3-NHCO(CH2)3SO2NH2)]LTWSC-NH2 (linker 2-11 via mXylylene; also: gallium in DOTA, also called natGa-DPI-4452) [3BP-4529], the “t1/2 (half-life of the complex, SPR)” value in assay [1] was greater than 15 min.

B1: 3BP-4260 (peptide)
peptide: {DOTA-3Amb}-DCE[dP]DWLTW[Dap]C-NH2
modifications: lactam 10-1; linker 2-11 via mXylylene
SMILES: CC(C)C[C@@H]1NC(=O)[C@H](Cc2c[nH]c3ccccc23)NC(=O)[C@H](CC(=O)O)NC(=O)[C@H]2CCCN2C(=O)[C@H](CCC(=O)O)NC(=O)[C@@H]2CSCc3cccc(c3)CSC[C@@H](C(N)=O)NC(=O)[C@H](CNC(=O)C[C@H](NC(=O)c3cccc(CNC(=O)CN4CCN(CC(=O)O)CCN(CC(=O)O)CCN(CC(=O)O)CC4)c3)C(=O)N2)NC(=O)[C@H](Cc2c[nH]c3ccccc23)NC(=O)[C@H]([C@@H](C)O)NC1=O
As for B1, the pIC50 in assay [2] is greater than 8 pic50.

B2: 3BP-4453 (peptide)
peptide: {DOTA}-QCE[dP]D[Phe(3-NHCO(CH2)3SO2NH2)]LTWSC-NH2
modifications: linker 2-11 via mXylylene
SMILES: CC(C)C[C@@H]1NC(=O)[C@H](Cc2cccc(NC(=O)CCCS(N)(=O)=O)c2)NC(=O)[C@H](CC(=O)O)NC(=O)[C@H]2CCCN2C(=O)[C@H](CCC(=O)O)NC(=O)[C@@H](NC(=O)[C@H](CCC(N)=O)NC(=O)CN2CCN(CC(=O)O)CCN(CC(=O)O)CCN(CC(=O)O)CC2)CSCc2cccc(c2)CSC[C@@H](C(N)=O)NC(=O)[C@H](CO)NC(=O)[C@H](Cc2c[nH]c3ccccc23)NC(=O)[C@H]([C@@H](C)O)NC1=O
As to B2, in assay [1], the “t1/2 (half-life of the complex, SPR)” value was greater than 15 min.

B3: 3BP-4261 (peptide)
peptide: {DOTA-4Amb}-DCE[dP]DWLTW[Dap]C-NH2
modifications: lactam 10-1; linker 2-11 via mXylylene
SMILES: CC(C)C[C@@H]1NC(=O)[C@H](Cc2c[nH]c3ccccc23)NC(=O)[C@H](CC(=O)O)NC(=O)[C@H]2CCCN2C(=O)[C@H](CCC(=O)O)NC(=O)[C@@H]2CSCc3cccc(c3)CSC[C@@H](C(N)=O)NC(=O)[C@H](CNC(=O)C[C@H](NC(=O)c3ccc(CNC(=O)CN4CCN(CC(=O)O)CCN(CC(=O)O)CCN(CC(=O)O)CC4)cc3)C(=O)N2)NC(=O)[C@H](Cc2c[nH]c3ccccc23)NC(=O)[C@H]([C@@H](C)O)NC1=O
With B3, the pIC50 in assay [2] was greater than 8 pic50.

{DOTA-PPAc}-QCE[dP]D[Af3(Hsfu)]LTWSC-NH2 (linker 2-11 via mXylylene) [3BP-4788]: in assay [1], the “t1/2 (half-life of the complex, SPR)” value was greater than 15 min.

B4: 3BP-3565 (peptide)
peptide: Ac-VYCE[dP]DWLTWSC-NH2
modifications: linker 3-12 via mXylylene
SMILES: CC(=O)N[C@H](C(=O)N[C@@H](Cc1ccc(O)cc1)C(=O)N[C@H]1CSCc2cccc(c2)CSC[C@@H](C(N)=O)NC(=O)[C@H](CO)NC(=O)[C@H](Cc2c[nH]c3ccccc23)NC(=O)[C@H]([C@@H](C)O)NC(=O)[C@H](CC(C)C)NC(=O)[C@H](Cc2c[nH]c3ccccc23)NC(=O)[C@H](CC(=O)O)NC(=O)[C@H]2CCCN2C(=O)[C@H](CCC(=O)O)NC1=O)C(C)C
In turn, B4 had a pKD in assay [3] greater than 8 pkd. Further, the “t1/2 (half-life of the complex, SPR)” value in assay [1] was greater than 15 min.

B5: 3BP-3282 (peptide)
peptide: Ac-VYCE[dP]DWLTWAC-NH2
modifications: linker 3-12 via mXylylene
SMILES: CC(=O)N[C@H](C(=O)N[C@@H](Cc1ccc(O)cc1)C(=O)N[C@H]1CSCc2cccc(c2)CSC[C@@H](C(N)=O)NC(=O)[C@H](C)NC(=O)[C@H](Cc2c[nH]c3ccccc23)NC(=O)[C@H]([C@@H](C)O)NC(=O)[C@H](CC(C)C)NC(=O)[C@H](Cc2c[nH]c3ccccc23)NC(=O)[C@H](CC(=O)O)NC(=O)[C@H]2CCCN2C(=O)[C@H](CCC(=O)O)NC1=O)C(C)C
B5: the pKD in assay [3] is greater than 8 pkd. The “t1/2 (half-life of the complex, SPR)” value in assay [1] was greater than 15 min.

The molecule {DOTA-APAc}-VYCE[dP]DWLE(AGLU′)WSC-NH2 (linker 3-12 via mXylylene; reading uncertain) [3BP-4121] returned a pKD in assay [3] greater than 8 pkd. Also, the “t1/2 (half-life of the complex, SPR)” value in assay [1] is greater than 15 min.

Turning to {DOTA-APAc″}-VYCE[dP]DWLTWAC-NH2 (linker 3-12 via mXylylene) [3BP-3432], the pKD in assay [3] was greater than 8 pkd. In assay [1], the “t1/2 (half-life of the complex, SPR)” value was greater than 15 min.

Turning to Ac-VYCE[dP]DWLTWE([Apr-DOTA])C-NH2 (linker 3-12 via mXylylene; reading uncertain) [3BP-3478], in assay [3], the pKD was greater than 8 pkd. Further, in assay [1], the “t1/2 (half-life of the complex, SPR)” value is greater than 15 min.

For the molecule {DOTA-APAc}-VYCE[dP]NWLTWSC-NH2 (linker 3-12 via mXylylene; reading uncertain) [3BP-4103], the pKD in assay [3] was greater than 8 pkd. In addition, in assay [1], the “t1/2 (half-life of the complex, SPR)” value was greater than 15 min.

Consider {DOTA-Cmp}-DCE[dP]DWLTW[Dap]C-NH2 (lactam 10-1; linker 2-11 via mXylylene; reading uncertain) [3BP-4259], for which the pIC50 in assay [2] was greater than 8 pic50.

Molecule {DOTA-APAc″}-DCE[dP]DWLTW[Dap]C-NH2 (lactam 10-1; linker 2-11 via mXylylene) [3BP-4254] displayed a pIC50 in assay [2] greater than 8 pic50.

B6: 3BP-4253 (peptide)
peptide: {DOTA}-DCE[dP]DWLTW[Dap]C-NH2
modifications: lactam 10-1; linker 2-11 via mXylylene
SMILES: CC(C)C[C@@H]1NC(=O)[C@H](Cc2c[nH]c3ccccc23)NC(=O)[C@H](CC(=O)O)NC(=O)[C@H]2CCCN2C(=O)[C@H](CCC(=O)O)NC(=O)[C@@H]2CSCc3cccc(c3)CSC[C@@H](C(N)=O)NC(=O)[C@H](CNC(=O)C[C@H](NC(=O)CN3CCN(CC(=O)O)CCN(CC(=O)O)CCN(CC(=O)O)CC3)C(=O)N2)NC(=O)[C@H](Cc2c[nH]c3ccccc23)NC(=O)[C@H]([C@@H](C)O)NC1=O
B6 gave a pIC50 in assay [2] greater than 8 pic50.

Regarding {DOTA-Inp′}-DCE[dP]DWLTW[Dap]C-NH2 (lactam 10-1; linker 2-11 via mXylylene) [3BP-4256], the pIC50 in assay [2] is greater than 8 pic50.

Consider {DOTA-PPAc}-QCE[dP]D[Af3(4SaPy2Ac)]LTWSC-NH2 (linker 2-11 via mXylylene) [3BP-4790], for which the “t1/2 (half-life of the complex, SPR)” value in assay [1] is greater than 15 min.

As for {DOTA}-QCE[dP]D[Aph(SaPr)″]LTWSC-NH2 (linker 2-11 via mXylylene; also: Ga complexed in DOTA) [3BP-4602], in assay [1], the “t1/2 (half-life of the complex, SPR)” value is greater than 15 min.

In turn, {DOTA-APAc″}-VYCE[dP]D[Af3(Iva)]LTWSC-NH2 (linker 3-12 via mXylylene) [3BP-4236] came in with a pIC50 in assay [2] greater than 8 pic50.

Molecule {DOTA-APAc″}-VYCE[dP]D[Af3(Prp)]LTWSC-NH2 (linker 3-12 via mXylylene) [3BP-4235] showed a pIC50 in assay [2] greater than 8 pic50.

Turning to {DOTA-APAc″}-VYCE[dP]D[Af3(HO-Succinyl)]LTWSC-NH2 (linker 3-12 via mXylylene) [3BP-4237], the pIC50 in assay [2] was greater than 8 pic50.

In assay [2], {DOTA-PPAc}-DCE[dP]DWLTW[Dap]C-NH2 (lactam 10-1; linker 2-11 via mXylylene) [3BP-4255] yielded a pIC50 greater than 8 pic50.

As for {DOTA-4Amc}-DCE[dP]DWLTW[Dap]C-NH2 (lactam 10-1; linker 2-11 via mXylylene; reading uncertain) [3BP-4258], the pIC50 in assay [2] was greater than 8 pic50.
